± gives the standard deviation.
Assay: protein stability index of a GFP-peptide fusion (GPS, HEK-293T) (PSI 1-6); higher = more stable
[1] = treatment: DMSO, c terminus: a fixed tail appended
[2] = treatment: MLN4924 1 uM, 8 h, c terminus: a fixed tail appended
[3] = treatment: DMSO, c terminus: native
[4] = treatment: MLN4924 1 uM, 8 h, c terminus: native
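Further: 24-mer peptide tiles fused after GFP, lentivirally expressed, FACS-sorted into six equal bins by GFP/DsRed ratio, decoded by Illumina sequencing, PSI is the read-weighted mean bin number.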

| Sequence | protein stability index [1] | protein stability index [2] | protein stability index [3] | protein stability index [4] |
| --- | --- | --- | --- | --- |
| PAIVEAGGMQALGLHLTDPSQRLV [CTNNB1] | 3.79 ± 0.23 | 3.83 ± 0.15 |  |  |
| PAPLCGGPSAEAYLLHPAAFHGAP [TBX6] | 2.82 ± 0.34 | 2.95 ± 0.27 |  |  |
| PARAPPEPPHNLFCAPGSWEWNEL [SERTAD3] | 3.36 ± 0.3 | 3.32 ± 0.32 |  |  |
| PARTVLVGSLSWLRKQLQPTHCKY | 2.38 ± 0.43 | 2.19 ± 0.098 |  |  |
| PASQAASSSSASADLLAGFGGSFM [SNAP91] | 3.89 ± 0.24 | 3.73 ± 0.12 |  |  |
| PCASLLAFASTCLLSRFSVGIFHL [TMEM175] | 3.43 ± 0.076 | 3 ± 0.3 |  |  |
| PDARPHRRPHELLPVGGRLPGPTR [HAGHL] | 4.6 ± 0.14 | 4.57 ± 0.3 |  |  |
| PDVTQLTPPSHDLTDNIFPRLVC [ANKRD17] |  |  | 2.45 ± 0.28 | 2.4 ± 0.25 |
| PEEKIWEELSVLEVFEGREDSILG [MAGEA3] | 4.6 ± 0.44 | 4.67 ± 0.11 |  |  |
| PEHRAFGSPFGLEEPQWVPDKECR [ZFYVE21] | 4.57 ± 0.15 | 4.62 ± 0.28 |  |  |
| PELRQLVLSLLSLEPAQRPPLSHI [NEK8] | 2.56 ± 0.41 | 2.47 ± 0.46 |  |  |
| PEQGVPKSGEGFIDFIGQVHKTKE [PTPRD] | 4.6 ± 0.44 | 5.17 ± 0.5 |  |  |
| PFFFTGAFPFNMQELVLKVRIQNP [ANKRD40] | 2.27 ± 0.042 | 1.99 ± 0.61 |  |  |
| PFGENAEFPADISSITEAVPSESE [NFE2L1] | 5.5 ± 0.28 | 5.25 ± 0.27 |  |  |
| PFSSVTEEELNFEKGETMEVIEKP [NCK2] | 5.38 ± 0.22 | 5.42 ± 0.28 |  |  |
| PGAGSRRRGRMALCGQAAGAASLP [FBXO33] | 2.76 ± 0.2 | 2.97 ± 0.17 |  |  |
| PGCGSVPGSGSGPGPGSGPGSGPG [SPAG8] | 4.96 ± 0.062 | 4.99 ± 0.25 |  |  |
| PGGAPRVASRNLFPKDTLMNLHVY [CLPTM1] | 2.33 ± 0.24 | 2.29 ± 0.058 |  |  |
| PGMPPPVPRPGIPPMTQAQAVSAP [ZNF207] | 4.94 ± 0.15 | 4.86 ± 0.19 |  |  |
| PGSILYSSSGDLADLENEDIFPEL [DLC1] | 4.69 ± 0.14 | 4.77 ± 0.32 |  |  |
| PLDSKENLENPMRRIHSLPQKLLG [CDC25A] | 3.29 ± 0.32 | 3.79 ± 0.16 |  |  |
| PLTRLGQLKACTNFDDILNVCDDY [KCNG1] | 3.18 ± 0.29 | 3.34 ± 0.23 |  |  |
| PMMEHEMGGHHPGADYPVDGLPDL [CTNNB1] | 5.2 ± 0.23 | 5.24 ± 0.13 |  |  |

| Sequence | protein stability index [1] | protein stability index [2] | protein stability index [3] | protein stability index [4] |
| --- | --- | --- | --- | --- |
| PPAQGRVSRRLSPRKVSTCTDHEL [TRIM9] | 5.031 ± 0.046 | 4.87 ± 0.35 |  |  |
| PPIPILELADHIERLKANDNLKFS [PTPRD] | 3.56 ± 0.19 | 3.32 ± 0.2 |  |  |
| PPPNRMYPPPPPALPSSAPSGPPP [WASL] | 5.01 ± 0.3 | 5.08 ± 0.13 |  |  |
| PQALATRALPCPAHVVFRYQGVRM [FCHSD1] | 2.69 ± 0.2 | 2.69 ± 0.22 |  |  |
| PQEFQKTVSTMYYLWMCSTLALLL [SCAMP3] | 2.88 ± 0.47 | 2.77 ± 0.67 |  |  |
| PSPTSPPPPELMDVSLVGGPADCS [DYRK1B] | 5.09 ± 0.1 | 5.14 ± 0.22 |  |  |
| PSRGHAYRDYGHSRRDESYSRGYR [RBMY1A1] | 4.42 ± 0.13 | 4.34 ± 0.26 |  |  |
| PSTASLLLCPGGLDHKLNLRGKAW [TIAF1] | 2.69 ± 0.24 | 2.87 ± 0.24 |  |  |
| PTARHFQEHPRQQLATSSFLLFLL [MOSPD3] | 2.2 ± 0.24 | 2.23 ± 0.4 |  |  |
| PTFKSFEERVETTVTSLKTKVGGT [TPD52L1] | 4.64 ± 0.25 | 4.65 ± 0.033 |  |  |
| PVEYRSDVNSFVTECEPSELFQLQ [CDS1] | 4.5 ± 0.36 | 4.55 ± 0.18 |  |  |
| PYPASKADIPSVAFSSRLGGSRGA [DCAF4] | 3.71 ± 0.22 | 3.8 ± 0.41 |  |  |
| QADTVHSNPELDVLLLGSVDGRHL [DNAAF3] | 3.77 ± 0.4 | 4 ± 0.3 |  |  |
| QAGPSPAPPTPPEEEDLRRRLKYF [MCOLN1] | 4.91 ± 0.14 | 4.99 ± 0.17 |  |  |
| QAIVTEDKTDISSGRARQQDEEML [MLH1] | 5.23 ± 0.22 | 5.38 ± 0.14 |  |  |
| QAKPEKAAVAQKPRSHFTTPAPMS [MYBL2] | 4.44 ± 0.34 | 4.39 ± 0.11 |  |  |
| QAYKWSNKLQYHAGLASGLLNQQS [MED27] | 2.46 ± 0.28 | 2.42 ± 0.096 |  |  |
| QCKDALEIYKRFLTRMTRVSEFLK [SNAP91] | 2.77 ± 0.9 | 2.51 ± 0.24 |  |  |
| QCRDLVDEAKKFHLRPELRSQMQG [KLHL12] | 3.38 ± 0.18 | 3.53 ± 0.13 |  |  |
| QEIEDKMKGFSFKEDTLLLIAEVM [C8orf76] | 2.54 ± 0.68 | 2.16 ± 0.44 |  |  |
| QEILLAHRRFCELLPQEQRSVESS [CIB1] | 4.16 ± 0.15 | 4.32 ± 0.11 |  |  |
| QERQGPAKPEVLSIQWPGKRSSRR [NECAB1] | 4.88 ± 0.21 | 4.93 ± 0.13 |  |  |
| QETAEFFLSLDIPIGELYGLSESS [ACSBG2] | 2.61 ± 0.37 | 2.47 ± 0.41 |  |  |

| Sequence | protein stability index [1] | protein stability index [2] | protein stability index [3] | protein stability index [4] |
| --- | --- | --- | --- | --- |
| QGEEVAQRSTVFKTTIPEEEEEEE [LMNB1] | 5.63 ± 0.19 | 5.64 ± 0.25 |  |  |
| QGIYEEYEDIRRENPVGTFHCSMS [PTPN9] | 3.84 ± 0.28 | 3.98 ± 0.26 |  |  |
| QGTARTLSPVLESPRDLQFSEIRE [TNXB] | 4.64 ± 0.16 | 4.78 ± 0.18 |  |  |
| QGTELWVAERGTTQGCHPAWEPRS [ZNF8] | 3.24 ± 0.16 | 3.1 ± 0.27 |  |  |
| QHKCDECGKSFTQSSGLIRHQRIH [ZSCAN9] | 5.26 ± 0.19 | 5.28 ± 0.12 |  |  |
| QIEGLNEELAYLKKNHEEEMKEFS [KRT15] | 5.25 ± 0.33 | 5.3 ± 0.19 |  |  |
| QIKRKARNEGRNRRRQQVLPLKS [CDKL4] |  |  | 2.87 ± 0.24 | 3.44 ± 0.35 |
| QKNFELAFTMAENLANCERLIEVE [SMTNL2] | 2.45 ± 0.2 | 2.88 ± 0.67 |  |  |
| QLDGLGFLYVTGHIKEILITAGGE [ACSBG2] | 2.66 ± 0.54 | 2.44 ± 0.64 |  |  |
| QLELRAGAERLDALLADEERCLSC [TRADD] | 3.98 ± 0.25 | 4.24 ± 0.18 |  |  |
| QLIYNHITTRVNSEQEHFLIVPFG [ADD1] | 2.41 ± 0.27 | 2.26 ± 0.08 |  |  |
| QLLEQKQAYWAQAEDTAAPAEESK [CBY2] | 5.01 ± 0.25 | 4.96 ± 0.23 |  |  |
| QMPTEIEFPESRKPISTKSQFLKH [ZNF649] | 4.16 ± 0.19 | 4.26 ± 0.19 |  |  |
| QMQDDEQKTRLLEDSVSRLEKEIE [PALM] | 5.11 ± 0.15 | 4.97 ± 0.1 |  |  |
| QNAALRGELSQARGQEPARADQLC [PRPH] | 5.12 ± 0.23 | 5.02 ± 0.37 |  |  |
| QNLLGFTPEELHAILGVQPDTED [ETS2] |  |  | 4.78 ± 0.39 | 4.85 ± 0.34 |
| QPIHLWQFLKELLLKPHSYGRFIR [SPDEF] | 2.69 ± 0.13 | 2.65 ± 0.19 |  |  |
| QPNTYADFEFLAFWQTQYNNMNAV [PKD2L1] | 2.21 ± 0.4 | 2.03 ± 0.24 |  |  |
| QPPRFPVPHNGSSEATLPAQMSTL [PDLIM4] | 4.67 ± 0.19 | 4.83 ± 0.089 |  |  |
| QPPSCQGEAAGSSLIGHLQTLSPD [DUSP5] | 4.76 ± 0.14 | 4.69 ± 0.13 |  |  |
| QPSGMKEGVKRYEQEHAAIQDKLF [CHCHD6] | 4.55 ± 0.12 | 4.14 ± 0.21 |  |  |
| QQGEYSEAIPILRAALKLEPSNKT [FKBP8] | 4.12 ± 0.19 | 4.14 ± 0.11 |  |  |
| QQLEEELLRAKIEVEKLKAIRLRH [RAD54B] | 5.32 ± 0.25 | 5.43 ± 0.27 |  |  |

| Sequence | protein stability index [1] | protein stability index [2] | protein stability index [3] | protein stability index [4] |
| --- | --- | --- | --- | --- |
| QQLHQLPRGRLDLATQSLTVETCR [LRRC45] | 4.04 ± 0.23 | 3.9 ± 0.32 |  |  |
| QQLKEFDGKSLVSVTKEGLELPED [HSP90AB1] | 5.29 ± 0.42 | 5.3 ± 0.44 |  |  |
| QQPSLNTMIQQQNMQQPMNVMTQS [CLINT1] | 4.41 ± 0.21 | 4.52 ± 0.087 |  |  |
| QQYRQDQRDGSKSEDELDQASTPT [CCND2] | 5.45 ± 0.2 | 5.39 ± 0.12 |  |  |
| QRLEEQERRHREEKERRKKQQWEI [RSPH3] | 4.45 ± 0.28 | 4.54 ± 0.31 |  |  |
| QSKTASDKSPSTVRDQGPSIPLTP [FBF1] | 5.07 ± 0.21 | 5.15 ± 0.099 |  |  |
| QTALLESSCENKRADLVFIIDSSR [MATN2] | 3.05 ± 0.24 | 3.24 ± 0.28 |  |  |
| QTEELKYSIDQEFLKEYFPIEVVT [NLN] | 3.23 ± 0.37 | 3.49 ± 0.29 |  |  |
| QTYFRQNRDEVLDNLLAFVCDIRP [ATP6V1G1] | 2.64 ± 0.44 | 2.27 ± 0.23 |  |  |
| RAAQLQHSEKMAQYLEEERHMREE [CCDC6] | 5.15 ± 0.25 | 5 ± 0.46 |  |  |
| RAPSERSGPAASEHSHRSHHSLAS [DVL3] | 4.68 ± 0.28 | 4.68 ± 0.21 |  |  |
| RDFHRKILTLPEMMRMFSENLAHH [TRIM15] | 2.25 ± 0.17 | 2.31 ± 0.051 |  |  |
| RDNPMCLKCDLQERLLCPSLLAGT [M1AP] | 2.28 ± 0.14 | 2.16 ± 0.23 |  |  |
| RDQQVEAAQRALVEVLGPYEPLLS [RETREG3] | 3.9 ± 0.17 | 4.14 ± 0.17 |  |  |
| REESLPNLLQYVRMPLLTPRYITD [KLHL12] | 2.8 ± 0.38 | 2.63 ± 0.34 |  |  |
| RELRKPEEPENGEPTAAATARRSK [PWWP2B] | 5.54 ± 0.16 | 5.51 ± 0.35 |  |  |
| RGCSRVEGGGTSLHVACELARPEC [ANKRD9] | 3.62 ± 0.3 | 3.69 ± 0.18 |  |  |
| RGELSARQMHLARFLRMLLRLADE [RAD51] | 2.2 ± 0.27 | 2.42 ± 0.4 |  |  |
| RGQCLLYNWEEERATNHLDQVPSM [SPAG8] | 3.13 ± 0.16 | 3.58 ± 0.42 |  |  |
| RGRAVLREAGFHQYEVSNFARNGA [RSAD1] | 3.36 ± 0.54 | 3.37 ± 0.48 |  |  |

From the supplement of paper PMC10567573
